The source of these data is the supplement of paper PMC10567573.

B1: IQUB (parent)
chain: CRNCINLQNEAQKRESFLKYKCLL
B2: IQUB (parent)
chain: KIREKEEWIKLDYHRRHNPKTNED
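Note: lentivirally expressed fusions sorted by FACS into six bins by GFP to DsRed ratio, PSI derived from sequencing read proportions per bin multiplied by bin number.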

One series covers variants of B1. The series is described as follows: protein stability index of a GFP-peptide fusion (GPS, HEK-293T) (PSI 1-6); higher = more stable. As to conditions: c terminus: a fixed tail appended.
In the case of CRNCINLDNEAQKRESFLKYKCLL [Q8D], the protein stability index worked out at 1.13.
As for CRNCINLGNEAQKRESFLKYKCLL [Q8G], the protein stability index was 1.57.
Same read-out and setting: under CRNCINLQTEAQKRESFLKYKCLL [N9T] stands 1.33; under CRNCINLQKEAQKRESFLKYKCLL [N9K], 1.98.
The same measure, in the same setting: next, CRNCINLQREAQKRESFLKYKCLL [N9R]: 2.42.
Same read-out and setting: next, CRNCINLQHEAQKRESFLKYKCLL [N9H]: 1.53; CRNCINLQNEAQYRESFLKYKCLL [K13Y]: 1.73; CRNCINLQNEAQMRESFLKYKCLL [K13M]: 1.8.
On to CRNCINLQNEAQLRESFLKYKCLL [K13L], for which the protein stability index came out at 2.79.
CRNCIHLQNEAQKRESFLKYKCLL [N6H]: the protein stability index is 1.97.
As to CRNCIQLQNEAQKRESFLKYKCLL [N6Q], the protein stability index is 2.25.
Turning to CRNCINLQNEAQKRESFLKCKCLL [Y20C], the protein stability index was found to be 3.65.
With CRNCINLQNEAQKRESFLKNKCLL [Y20N], the protein stability index stood at 2.96.
The same measure, in the same setting: under CRNCINLQNEAQKRESFLKAKCLL [Y20A] stands 2.34; under CRNCINLQNEAQKRESFLKMKCLL [Y20M], 2.66; under CRNCINLQNEAQKRESFLKSKCLL [Y20S], 1.5.
Take CRNCINLQNEAQKRESFLQYKCLL [K19Q]: the protein stability index is 1.85.
The same measure, in the same setting: next, CRNCINLQNEAQKREKFLKYKCLL [S16K]: 1.88; CRNCINLQNEAQKRETFLKYKCLL [S16T]: 1.59; CRNCINLQNEAQKRELFLKYKCLL [S16L]: 1.99.
On the same count and under the same terms, next, CRNCINLQNEAQKRECFLKYKCLL [S16C]: 1.53; CRNCINLQNEAQKRESFLKYKQLL [C22Q]: 2.33; CRNCINLQNEAQKRESFLKYKMLL [C22M]: 1.79.
The same measure, in the same setting: next, CRNCINLQNEAQKRESFLKYKVLL [C22V]: 1.73; CRNCINFQNEAQKRESFLKYKCLL [L7F]: 1.68.
In the case of CRNCINMQNEAQKRESFLKYKCLL [L7M], the protein stability index stood at 2.39.
The same measure, in the same setting: under CRNCINLQNEAQKRESFLKYKCNL [L23N] stands 2.12; under CRNCENLQNEAQKRESFLKYKCLL [I5E], 2.53.
Regarding CRNCANLQNEAQKRESFLKYKCLL [I5A], the protein stability index came out at 1.79.
CRNFINLQNEAQKRESFLKYKCLL [C4F]: the protein stability index was determined as 2.15.
On the same count and under the same terms, under CRNIINLQNEAQKRESFLKYKCLL [C4I] stands 2.28; under CRNLINLQNEAQKRESFLKYKCLL [C4L], 1.53; under CRNCINLQNEAQKRESQLKYKCLL [F17Q], 1.5.
Turning to CRNCINLQNEAQKRESELKYKCLL [F17E], the protein stability index was found to be 2.6.
CRNCINLQNEAQKRESRLKYKCLL [F17R]: the protein stability index was determined as 2.65.
As to KRNCINLQNEAQKRESFLKYKCLL [C1K], the protein stability index came to 1.9.
In the case of RRNCINLQNEAQKRESFLKYKCLL [C1R], the protein stability index was found to be 1.94.
Consider SRNCINLQNEAQKRESFLKYKCLL [C1S], for which the protein stability index amounted to 1.9.
As to LRNCINLQNEAQKRESFLKYKCLL [C1L], the protein stability index was 1.72.
Regarding NRNCINLQNEAQKRESFLKYKCLL [C1N], the protein stability index came to 2.33.
Regarding ARNCINLQNEAQKRESFLKYKCLL [C1A], the protein stability index amounted to 2.36.
Take CRNCINLQNEAQKRESFDKYKCLL [L18D]: the protein stability index amounted to 1.63.
Take CRNCINLQNEAQKRESFPKYKCLL [L18P]: the protein stability index worked out at 2.11.
Consider CRNCINLQNEAQKRESFVKYKCLL [L18V], for which the protein stability index is 1.88.
On to CRNCINLQNEAHKRESFLKYKCLL [Q12H], for which the protein stability index was found to be 1.75.
Take CRNCINLQNEAYKRESFLKYKCLL [Q12Y]: the protein stability index was found to be 2.28.
CRNCINLQNEASKRESFLKYKCLL [Q12S]: the protein stability index amounted to 1.31.
Turning to CRNCINLQNEAQKRYSFLKYKCLL [E15Y], the protein stability index is 2.04.
On to CRNCINLQNEAQKRMSFLKYKCLL [E15M], for which the protein stability index came out at 3.62.
On to CRNCINLQNEAQKRFSFLKYKCLL [E15F], for which the protein stability index was 2.57.
Same read-out and setting: under CRNCINLQNEAQKRRSFLKYKCLL [E15R] stands 1.08.
As to CRNCINLQNEAQKRPSFLKYKCLL [E15P], the protein stability index is 2.05.
On to CRNCINLQNEAQKRDSFLKYKCLL [E15D], for which the protein stability index was determined as 2.13.
Turning to CRNCINLQNEAQKRESFLKYKCLS [L24S], the protein stability index turned out to be 3.46.
Turning to CRNCINLQNEAQKRESFLKYKCLP [L24P], the protein stability index worked out at 2.22.
Turning to CRNCINLQNEAQKRESFLKYKCLN [L24N], the protein stability index turned out to be 1.86.
CRNCINLQNEAQKRESFLKYKCLR [L24R]: the protein stability index was determined as 1.82.
As for CRNCINLQNEAQKRESFLKYKCLA [L24A], the protein stability index was 2.56.
As to CRNCINLQNEAQKRESFLKYKCLV [L24V], the protein stability index was determined as 1.27.
As for CRNCINLQNEAQKRESFLKYKCLE [L24E], the protein stability index came out at 1.65.
Take CRNCINLQNEYQKRESFLKYKCLL [A11Y]: the protein stability index came to 1.69.
On the same count and under the same terms, under CRNCINLQNEVQKRESFLKYKCLL [A11V] stands 1.57; under CRNCINLQNEAQKMESFLKYKCLL [R14M], 1.39; under CRNCINLQNEAQKDESFLKYKCLL [R14D], 2.66.
Take CRNCINLQNEAQKPESFLKYKCLL [R14P]: the protein stability index was determined as 2.35.
Consider CRNCINLQNTAQKRESFLKYKCLL [E10T], for which the protein stability index is 1.71.
Take CRNCINLQNLAQKRESFLKYKCLL [E10L]: the protein stability index was determined as 1.65.
Take CRQCINLQNEAQKRESFLKYKCLL [N3Q]: the protein stability index was 2.7.
CRCCINLQNEAQKRESFLKYKCLL [N3C]: the protein stability index came to 1.61.
Take CRNCINLQNEAQKRESFLKYTCLL [K21T]: the protein stability index stood at 1.58.
Take CRNCINLQNEAQKRESFLKYCCLL [K21C]: the protein stability index is 1.77.
As for CRNCINLQNEAQKRESFLKYFCLL [K21F], the protein stability index came to 1.74.
As for CRNCINLQNEAQKRESFLKYYCLL [K21Y], the protein stability index worked out at 1.51.
As to CNNCINLQNEAQKRESFLKYKCLL [R2N], the protein stability index came to 2.22.
On the same count and under the same terms, next, CGNCINLQNEAQKRESFLKYKCLL [R2G]: 1.28; CWNCINLQNEAQKRESFLKYKCLL [R2W]: 1.98.
For the variant CENCINLQNEAQKRESFLKYKCLL [R2E], the protein stability index is 2.23.
CPNCINLQNEAQKRESFLKYKCLL [R2P]: the protein stability index is 2.25.
In the case of CDNCINLQNEAQKRESFLKYKCLL [R2D], the protein stability index was 2.3.

The next series covers variants of B2. Described as above. As to conditions: c terminus: a fixed tail appended.
For KIREKEEWIKLDYHRRHNPATNED [K20A], the protein stability index stood at 4.52.
With KIREKEEWIKLDYHRRHNPQTNED [K20Q], the protein stability index came to 4.39.
On to KIREKEEWIKLDYHRRHNPDTNED [K20D], for which the protein stability index was 4.65.
With KIREKEEWIKLDYHRRHNPTTNED [K20T], the protein stability index was found to be 4.64.
Still for that read-out and setting: next, KIREKEEWIKLDYHRRHNPGTNED [K20G]: 4.84; KIREKEEWIKLDYHRRHNPMTNED [K20M]: 4.53; KIREKEEWIKLDYHRRHNPITNED [K20I]: 4.37.
Still for that read-out and setting: under KIREKEEWIKLDYHRRHNPFTNED [K20F] stands 2.51; under KIREKEEWIKLDYHRRHNPHTNED [K20H], 4.64.
The same measure, in the same setting: next, KIREKEEWIKLDYHRRHNPNTNED [K20N]: 4.21; KIREKEEWIKLDYHRRHNPVTNED [K20V]: 4.72; KIREKEEWIKLDYHRRHNPYTNED [K20Y]: 4.03.
Turning to KIREKEEWIKLDYHRRHNPWTNED [K20W], the protein stability index turned out to be 3.08.
Take KIREKEEWIKLDYHRRHNPCTNED [K20C]: the protein stability index stood at 4.27.
Still for that read-out and setting: next, KIREKEEWIKLDYHRRHNPSTNED [K20S]: 4.81.
